The results in this text go back to PMC4446428, “A novel RNA binding surface of the TAM domain of TIP5/BAZ2A mediates epigenetic regulation of rRNA genes”.

The test system of data set [1] is TIP5/TAM-AT (Homo sapiens). In words: filter binding (Scatchard). The note with it: 5 mM Mg2+, protein preincubated with 4x excess unlabeled MCS-RNA, EMSA: 12 mM Tris-HCl pH 8.0, 100 mM KCl, 5 mM MgCl2, 0.1 mM EDTA, 0.5 mM DTT, 3% glycerol, on ice, filter binding: 10 mM Tris-HCl pH 7.4, 100 mM KCl.
For data set [2], the target named is T1, TIP5/TAM (Homo sapiens, UniProt Q9UIF9 516-623).
T1 sequence: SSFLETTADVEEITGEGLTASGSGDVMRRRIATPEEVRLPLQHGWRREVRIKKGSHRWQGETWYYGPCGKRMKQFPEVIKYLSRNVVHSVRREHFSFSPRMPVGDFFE
In words: NMR titration; EMSA: 12 mM Tris-HCl pH 8.0, 100 mM KCl, 5 mM MgCl2, 0.1 mM EDTA, 0.5 mM DTT, 3% glycerol, on ice; filter binding: 10 mM Tris-HCl pH 7.4, 100 mM KCl, 5 mM MgCl2, on ice; NMR: 20 mM Na phosphate pH 7.0, 50 mM NaCl, 1 mM DTT, 298 K (TAM-AT) or 293 K (TAM). The settings on record: protein: recombinant; tags: His6-GB1, TEV-removed; label: none; hairpin. A general note: In EMSA bound probe runs differently from free probe, usually more slowly.

For data set [3], the target named is T1, TIP5/TAM. Description: NMR titration; negligible shift changes; EMSA: 12 mM Tris-HCl pH 8.0, 100 mM KCl, 5 mM MgCl2, 0.1 mM EDTA, 0.5 mM DTT, 3% glycerol, on ice; filter binding: 10 mM Tris-HCl pH 7.4, 100 mM KCl, 5 mM MgCl2, on ice; NMR: 20 mM Na phosphate pH 7.0, 50 mM NaCl, 1 mM DTT, 298 K (TAM-AT) or 293 K (TAM). The note with it: protein: recombinant; tags: His6-GB1, TEV-removed; label: none; single-stranded.

In data set [1], pRNA (mouse rDNA -204/-1) gave a Kd of 5.5 nM.
With GGCGCAUCGGCGCC (structured_RNA) [Xist A-repeat RNA hairpin], in data set [2], the binding result is “binds”.
Turning to UUUUUUUUUUUUU (ssRNA) [13-mer poly-U RNA], the binding result in data set [3] is reported as “no binding”.

A word on the Kd: it is the constant that tells how readily two partners part at equilibrium.
